The target of series [1] is T1, Solute carrier family 22 member 1 (Mus musculus, UniProt O08966).
T1 sequence (O08966 whole entry): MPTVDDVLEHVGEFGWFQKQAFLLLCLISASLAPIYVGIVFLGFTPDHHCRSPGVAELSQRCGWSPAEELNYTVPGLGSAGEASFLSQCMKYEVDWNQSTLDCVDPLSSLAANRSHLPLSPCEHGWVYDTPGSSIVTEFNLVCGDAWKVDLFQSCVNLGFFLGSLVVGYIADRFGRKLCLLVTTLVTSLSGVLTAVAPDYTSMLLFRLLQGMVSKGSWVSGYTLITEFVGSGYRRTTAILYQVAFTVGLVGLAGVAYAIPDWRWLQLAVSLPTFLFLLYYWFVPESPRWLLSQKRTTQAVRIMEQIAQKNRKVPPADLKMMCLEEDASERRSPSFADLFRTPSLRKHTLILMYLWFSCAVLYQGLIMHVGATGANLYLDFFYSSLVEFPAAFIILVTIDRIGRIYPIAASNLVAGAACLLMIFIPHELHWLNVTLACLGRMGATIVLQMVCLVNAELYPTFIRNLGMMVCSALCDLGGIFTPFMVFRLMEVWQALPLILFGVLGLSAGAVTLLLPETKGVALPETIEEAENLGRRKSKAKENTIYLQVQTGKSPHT
Put plainly: TP_TRANSPORTER: decrease in small intestine concentration in Oct1 -/- mouse. Format: functional, organism-based. As to conditions: in vivo.

For series [2], the target named is T1, Solute carrier family 22 member 1. Put plainly: TP_TRANSPORTER: decrease in liver concentration in Oct1 -/- mouse. Format: functional, organism-based. The conditions noted are these: in vivo.
Substrate in series [3]: CN(C)C(=N)N=C(N)N
Put plainly: (§1) TP_TRANSPORTER: uptake in OCT1-expressing CHO cells. In kind it is functional, cell-based.

Substrate in series [4]: [H]/N=C(/N)N/C(=N/[H])NCCc1ccccc1
The description is as §1. In kind it is functional, cell-based.

Substrate in series [5]: CCCCNC(=N)NC(=N)N
Put plainly: cells, lysate or membranes named.

On to `CN(C)C(=N)N=C(N)N` [METFORMIN], for which the Activity result in series [1] and in series [2] was “substrate [+]” in each case.

B1: Solute carrier family 22 member 1 (Rattus norvegicus) (protein)
chain: MPTVDDVLEQVGEFGWFQKQAFLLLCLISASLAPIYVGIVFLGFTPGHYCQNPGVAELSQRCGWSQAEELNYTVPGLGPSDEASFLSQCMRYEVDWNQSTLDCVDPLSSLVANRSQLPLGPCEHGWVYDTPGSSIVTEFNLVCGDAWKVDLFQSCVNLGFFLGSLVVGYIADRFGRKLCLLVTTLVTSVSGVLTAVAPDYTSMLLFRLLQGMVSKGSWVSGYTLITEFVGSGYRRTTAILYQMAFTVGLVGLAGVAYAIPDWRWLQLAVSLPTFLFLLYYWFVPESPRWLLSQKRTTRAVRIMEQIAQKNGKVPPADLKMLCLEEDASEKRSPSFADLFRTPNLRKHTVILMYLWFSCAVLYQGLIMHVGATGANLYLDFFYSSLVEFPAAFIILVTIDRIGRIYPIAASNLVTGAACLLMIFIPHELHWLNVTLACLGRMGATIVLQMVCLVNAELYPTFIRNLGMMVCSALCDLGGIFTPFMVFRLMEVWQALPLILFGVLGLTAGAMTLLLPETKGVALPETIEEAENLGRRKSKAKENTIYLQVQTGKSSST
As a reminder, the Km is the concentration of substrate that gives half-maximal velocity. As for B1, the Km in series [3] turned out to be 377 µM; in series [4], 15.6 µM; in series [5] it was 48.8 µM.
